The results in this text go back to US20040005550A1, “Methods and compositions useful for targeting activated vitronectin receptor alphavbeta3” (The Scripps Research Institute, priority 1998, published 2004).

The target in test [1] is human αvβ3 integrin on cells (human) (UniProt P06756). Description: flow cytometry, AP5-treated αvβ3-CHO cells; 1 µM Integrilin against aPB. For orientation: A flow cytometer gives signals particle by particle.
Test [2] shares this target. As to the kind of experiment: flow cytometry, AP5-treated αvβ3-CHO cells; 1 µM Integrilin against WOW-1 Fab.
Test [3] deals with purified αIIbβ3 from human platelets (human) (UniProt P08514). As to the kind of experiment: ELISA on purified integrin, 50 µM MnCl2; half-maximal binding.
The target in test [4] is human αvβ3 integrin on cells (human) (UniProt P06756). As to the kind of experiment: flow cytometry binding isotherms, JY cells.
For test [5] the target is unchanged. As to the kind of experiment: flow cytometry binding isotherm, αvβ3-CHO cells, no treatment.
For test [6], the target named is purified αvβ3 receptors from human placenta (human) (UniProt P06756). As to the kind of experiment: ELISA on purified integrin, 50 µM MnCl2; half-maximal binding.
Chain of purified αvβ3 receptors from human placenta (human) (P06756 31-1048 limits assumed, chain 1 of 2): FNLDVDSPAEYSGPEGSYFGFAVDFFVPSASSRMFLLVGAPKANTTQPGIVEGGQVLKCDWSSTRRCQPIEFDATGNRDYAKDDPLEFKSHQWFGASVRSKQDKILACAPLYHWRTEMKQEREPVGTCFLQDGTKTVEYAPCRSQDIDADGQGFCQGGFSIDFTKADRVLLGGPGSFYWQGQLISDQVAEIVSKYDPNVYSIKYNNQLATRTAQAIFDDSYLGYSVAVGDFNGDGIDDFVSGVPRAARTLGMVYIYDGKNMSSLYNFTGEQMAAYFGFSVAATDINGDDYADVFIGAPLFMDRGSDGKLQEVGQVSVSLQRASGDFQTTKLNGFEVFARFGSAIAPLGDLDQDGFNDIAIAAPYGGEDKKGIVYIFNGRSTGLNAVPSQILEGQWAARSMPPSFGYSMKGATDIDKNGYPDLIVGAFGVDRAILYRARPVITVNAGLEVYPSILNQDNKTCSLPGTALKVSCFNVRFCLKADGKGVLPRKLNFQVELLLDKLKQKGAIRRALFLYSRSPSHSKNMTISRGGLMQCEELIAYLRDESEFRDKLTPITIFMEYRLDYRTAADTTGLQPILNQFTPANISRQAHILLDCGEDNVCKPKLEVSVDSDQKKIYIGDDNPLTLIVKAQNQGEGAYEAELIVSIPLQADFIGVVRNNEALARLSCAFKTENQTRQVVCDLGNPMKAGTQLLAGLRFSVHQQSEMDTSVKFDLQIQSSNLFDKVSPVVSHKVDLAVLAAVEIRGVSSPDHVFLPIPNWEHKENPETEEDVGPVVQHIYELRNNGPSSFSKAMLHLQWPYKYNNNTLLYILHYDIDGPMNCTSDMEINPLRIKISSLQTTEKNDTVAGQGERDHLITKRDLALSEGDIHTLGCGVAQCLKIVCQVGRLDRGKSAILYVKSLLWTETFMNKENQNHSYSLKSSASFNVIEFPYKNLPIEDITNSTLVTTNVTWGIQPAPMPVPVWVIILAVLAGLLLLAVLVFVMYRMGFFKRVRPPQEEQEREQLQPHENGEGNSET
Chain of purified αvβ3 receptors from human placenta (human) (P05106 27-788 limits assumed, chain 2 of 2, further chain): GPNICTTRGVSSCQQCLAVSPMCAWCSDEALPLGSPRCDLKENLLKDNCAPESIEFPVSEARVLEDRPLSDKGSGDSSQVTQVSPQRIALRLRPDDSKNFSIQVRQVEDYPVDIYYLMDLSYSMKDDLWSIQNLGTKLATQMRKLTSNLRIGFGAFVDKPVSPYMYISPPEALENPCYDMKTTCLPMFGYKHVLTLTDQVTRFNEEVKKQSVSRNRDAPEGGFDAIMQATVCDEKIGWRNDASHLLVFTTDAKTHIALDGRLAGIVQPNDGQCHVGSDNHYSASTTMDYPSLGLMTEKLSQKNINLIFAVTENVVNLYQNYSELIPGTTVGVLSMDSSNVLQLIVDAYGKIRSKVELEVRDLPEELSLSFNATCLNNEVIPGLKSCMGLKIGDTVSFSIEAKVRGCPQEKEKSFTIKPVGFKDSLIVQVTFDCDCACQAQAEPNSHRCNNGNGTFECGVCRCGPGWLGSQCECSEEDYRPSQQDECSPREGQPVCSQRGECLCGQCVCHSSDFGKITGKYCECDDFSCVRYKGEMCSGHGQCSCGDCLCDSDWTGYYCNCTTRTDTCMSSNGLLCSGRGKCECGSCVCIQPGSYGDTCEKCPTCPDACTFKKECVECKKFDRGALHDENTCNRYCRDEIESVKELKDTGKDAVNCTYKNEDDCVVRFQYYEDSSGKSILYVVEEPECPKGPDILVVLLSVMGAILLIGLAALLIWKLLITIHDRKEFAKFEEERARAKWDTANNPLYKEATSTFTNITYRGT
The target in test [7] is human αvβ3 integrin on cells (human) (UniProt P06756). Description: flow cytometry binding isotherm, unstimulated JY cells, one-site fit.
Test [8] shares this target. As to the kind of experiment: flow cytometry, JY cells, 100 nM phorbol myristate acetate for 15 min.
Test [9] shares this target. Description: flow cytometry binding isotherm, αvβ3-CHO cells, activating antibody AP5.
For test [10] the target is unchanged. As to the kind of experiment: flow cytometry binding isotherm, JY cells stimulated with phorbol myristate acetate, one-site fit.
The target is the same in test [11]. Description: unstimulated B-lymphoblastoid cells; summary in the description, differs from the 2,600 nM of Example 8.

Chain of human αvβ3 integrin on cells (human) (P06756 31-1048, chain 1 of 2): as the sequence (P06756 31-1048 limits assumed, chain 1 of 2) above
Chain of human αvβ3 integrin on cells (human) (P05106 27-788, chain 2 of 2, further chain): as the sequence (P05106 27-788 limits assumed, chain 2 of 2, further chain) above

Integrilin (peptide) displayed a percent inhibition of aPB binding in test [1] of less than 20%. The percent inhibition of WOW-1 Fab binding in test [2] is less than 20%.

The term EC50 denotes the concentration needed to bring the measured effect to its halfway point. Low values mean a more potent agent, high ones a less potent agent. Turning to PAC1 Fab, in test [3], the EC50 stood at 50 nM.

As a reminder, the Kd is the free concentration of one partner at which half of the binding sites on the other are occupied at equilibrium, for simple one-to-one binding. Read a high Kd as a looser complex. Take WOW-1 Fab: the fold increase in binding affinity with phorbol myristate acetate against unstimulated cells in test [4] is greater than 30 fold. In addition, the Bmax came out at 62 units in test [5] and 65 units in test [9]. The Kd was determined as 514 nM in test [5]; 2600 nM in test [7]; 119 nM in [9]; 80 nM in test [10]; 2400 nM in test [11]. Moreover, the concentration for a half-maximal effect (EC50) in test [6] stood at 40 nM. Also, in test [7], the maximal binding (arbitrary fluorescence units) stood at 24.8. For the same substance, the fold increase in specific binding with phorbol myristate acetate against no agonist in [8] was found to be 2.4 fold. In test [10], this substance displayed a maximal binding of 23.5 units.
